Measurements taken from US20240425603A1 (Janssen / Centocor, published 2024).

What was measured:
[1] = target: T1, NECTIN1 Isoform Alpha (NM_203285.1) (human, UniProt Q15223-2 31-458); experiment: Retrogenix cell microarray, fixed HEK293 cells, 2 ug/mL antibody
T1 construct: whole, on cells
T1 sequence (looked up): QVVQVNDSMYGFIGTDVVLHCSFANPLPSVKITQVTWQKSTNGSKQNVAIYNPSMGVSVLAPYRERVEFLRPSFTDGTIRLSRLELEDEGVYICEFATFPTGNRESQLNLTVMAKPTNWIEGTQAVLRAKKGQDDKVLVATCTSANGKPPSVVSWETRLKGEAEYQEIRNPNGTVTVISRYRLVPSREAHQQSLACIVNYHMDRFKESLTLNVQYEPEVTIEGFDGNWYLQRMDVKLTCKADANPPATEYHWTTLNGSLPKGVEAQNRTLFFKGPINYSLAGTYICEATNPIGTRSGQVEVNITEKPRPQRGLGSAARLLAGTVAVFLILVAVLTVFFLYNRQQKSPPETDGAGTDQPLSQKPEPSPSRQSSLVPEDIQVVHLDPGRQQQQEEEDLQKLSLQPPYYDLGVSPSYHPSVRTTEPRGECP
Experimental: (§1) This human cell microarray methodology has been previously described in the literature (Freeth, J. et al, SLAS Discovery, 25 (2), 223-230, 2020). Primary screening was performed on slides arrayed with fixed HEK293 cells with each spot of HEK293 cells expressing either a unique protein from the cell surface-ome, a cell surface tethered human secreted protein, or a heterodimeric human cell surface receptor. In total, 5,528 unique gene products were represented in this primary screen (4,103 human plasma membrane proteins (+some untethered secreted proteins)+1,425 cell surface tethered human secreted proteins). Briefly, slides containing fixed transfected HEK293 cells were overlaid with a solution of test antibody (2 μg/mL), incubated, and washed. Binding was assessed using AlexaFluor647-conjugated anti-human IgG Fc detection antibody and fluorescence quantitation on ImageQuant. […] Located in the ER, off-target binding to CRELD2 was of less concern. Nectin-1, FGFR2, and ISLR, on the other hand, display broad tissue expression profiles. Cross-reactivity to these proteins is undesirable because binding to these targets might have a significant impact on pharmacokinetic and biodistribution profiles of the molecules. This off-target binding was subsequently confirmed by flow cytometry on live HEK293 cells transiently expressing these ‘off-target’ proteins identified in the primary screen.

[2] = target: T2, murine VEGFR1, over-expressed on cells (mouse, UniProt P35969 23-1333); experiment: FACS cell binding (MFI) on HEK cells over-expressing murine VEGFR1; expanded clone supernatant per paragraph 492, concentration not given
T2 construct: whole, on cells; also called mouse VEGFR1
T2 sequence (looked up): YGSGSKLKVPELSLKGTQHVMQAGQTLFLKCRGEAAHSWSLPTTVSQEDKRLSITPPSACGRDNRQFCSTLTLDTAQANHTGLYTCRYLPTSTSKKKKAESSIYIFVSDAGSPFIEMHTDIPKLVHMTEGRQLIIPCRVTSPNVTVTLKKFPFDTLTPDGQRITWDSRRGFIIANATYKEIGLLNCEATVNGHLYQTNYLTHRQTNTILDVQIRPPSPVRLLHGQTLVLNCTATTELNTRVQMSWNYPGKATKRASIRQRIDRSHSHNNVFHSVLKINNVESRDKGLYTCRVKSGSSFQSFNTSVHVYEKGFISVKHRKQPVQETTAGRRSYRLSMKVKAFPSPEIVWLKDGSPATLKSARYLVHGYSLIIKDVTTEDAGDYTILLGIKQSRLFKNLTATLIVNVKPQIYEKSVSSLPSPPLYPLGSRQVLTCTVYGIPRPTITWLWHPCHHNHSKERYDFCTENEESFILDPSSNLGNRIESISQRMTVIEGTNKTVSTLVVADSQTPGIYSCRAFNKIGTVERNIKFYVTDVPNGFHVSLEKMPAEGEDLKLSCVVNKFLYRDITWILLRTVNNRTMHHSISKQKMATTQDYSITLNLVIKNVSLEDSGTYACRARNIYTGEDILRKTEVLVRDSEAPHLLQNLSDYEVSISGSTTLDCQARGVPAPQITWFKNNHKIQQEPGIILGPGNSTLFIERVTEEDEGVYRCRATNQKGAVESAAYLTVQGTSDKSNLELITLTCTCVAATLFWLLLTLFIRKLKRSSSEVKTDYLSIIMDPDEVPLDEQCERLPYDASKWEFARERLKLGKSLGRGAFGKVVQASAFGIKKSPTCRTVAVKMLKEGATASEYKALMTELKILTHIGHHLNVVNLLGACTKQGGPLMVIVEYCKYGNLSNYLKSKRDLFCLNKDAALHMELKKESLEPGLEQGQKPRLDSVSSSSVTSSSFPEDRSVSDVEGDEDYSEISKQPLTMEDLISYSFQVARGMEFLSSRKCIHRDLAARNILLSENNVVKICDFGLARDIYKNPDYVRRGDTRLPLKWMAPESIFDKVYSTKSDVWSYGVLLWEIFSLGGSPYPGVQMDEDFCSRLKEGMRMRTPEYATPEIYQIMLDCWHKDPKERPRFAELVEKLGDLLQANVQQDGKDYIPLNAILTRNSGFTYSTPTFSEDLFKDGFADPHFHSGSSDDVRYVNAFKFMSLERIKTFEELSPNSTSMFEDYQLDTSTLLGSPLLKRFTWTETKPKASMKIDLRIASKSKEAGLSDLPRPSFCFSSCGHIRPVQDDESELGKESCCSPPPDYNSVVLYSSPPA
Procedure, shortened: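 Chicken-derived antibody clones were expressed as scFv-Fc (human IgG1) by transient transfection and expanded to 6-well plates (2 mL). They were tested as culture supernatants. Binding was measured by flow cytometry on cells engineered to over-express the receptor: HEK cells for mouse VEGFR1 and human VEGFR2, and K562 cells for human VEGFR3. The read-out is mean fluorescence intensity.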

[3] = target: T3, NECTIN1 Isoform Gamma (NM_203286.1) (human, UniProt Q15223-3 31-352); experiment: Retrogenix cell microarray, fixed HEK293 cells, 2 ug/mL antibody; topology TS
T3 construct: whole, on cells
T3 sequence (looked up): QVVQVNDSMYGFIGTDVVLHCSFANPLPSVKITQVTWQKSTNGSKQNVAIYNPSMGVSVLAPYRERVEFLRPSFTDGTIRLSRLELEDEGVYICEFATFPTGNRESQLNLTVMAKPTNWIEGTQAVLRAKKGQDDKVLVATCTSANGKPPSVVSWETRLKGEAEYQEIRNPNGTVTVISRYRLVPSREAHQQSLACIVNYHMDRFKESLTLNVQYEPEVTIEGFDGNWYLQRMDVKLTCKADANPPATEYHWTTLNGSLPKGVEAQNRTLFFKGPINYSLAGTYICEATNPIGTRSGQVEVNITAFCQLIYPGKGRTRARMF
Experimental: as §1

Measured: binding result

B1: VGFB71 (antibody, human IgG1, lambda, L234A L235A, V domains shown)
VH: EVQLLESGGGLVQPGGSLRLSCEASGFIFRDYNMNWVRQAPGKGLEWVSIITNDGSSTAYSDSVKGRFTISRDNSKNSLYLQMNSLRAEDTAIYYCVKVYYGMDDWGQGTTVTVSS
VL: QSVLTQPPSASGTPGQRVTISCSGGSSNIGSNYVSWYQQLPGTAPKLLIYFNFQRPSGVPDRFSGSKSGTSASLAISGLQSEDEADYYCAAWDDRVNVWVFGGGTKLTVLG
notes: human IgG1 (L234A/L235A/D265S)
binds: all assays above
